Assay results taken from the supplement of paper PMC7877785.
± gives the uncertainty stated by the source.

Assay: self-splicing fitness, log relative to wild type (ln ratio); higher = more splicing; Tetrahymena group I intron in knt gene, E. coli kanamycin selection, DiMSum; sequences stand for … in CUCUCU…GGAGGGAAAAGUUAUCAGGCAUGCACCUGGUAGCUAGUCUUUAAACCAAUAGAUUGCAUCGGUUUAAAAGGCAAGACCGUCAAAUUGCGGGAAAGGGGUCAACAGCCGUUCAGUACCAAGUCUCAGGGGAAACUUUGAGAUGGCCUUGCAAAGGGUAUGGUAAUAAGCUGACGGACAUGGUCCUAACCACGCAGCCAAGUCCUAAGUCAACAGAUCUUCUGUUGAUAUGGAUGCAGUUCACAGACUAAAUGUCGGUCGGGGAAGAUGUAUUCUUCUCAUAAGAUAUAGUCGGACCUCUCCUUAAUGGGAGCUAGCGGAUGAAGUGAUGCAACACUGGAGCCGCUGGGAACUAAUUUGUAUGCGAAAGUAUAUUGAUUAGUUUUGGAGUACUCGUGGUCG
How it was run: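 The eight P1ex-region nucleotides of an intron in the knt kanamycin-resistance gene on pET-22b(+) were all randomised and the library put into E. coli BL21(DE3). Six replicate transformations were grown overnight at 37°C or 30°C on LB agar with or without 25 μg/mL kanamycin, together with 100 μg/mL carbenicillin, 50 μM IPTG and 0.2% rhamnose. Colonies were pooled and amplicon-sequenced on an Illumina HiSeq 2500. Fitness from DiMSum is the error-weighted combination of wild-type-normalised replicate fold changes, kanamycin over none.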

Sequence	self-splicing fitness (ln) (30 °C)	self-splicing fitness (ln) (37 °C)
GGUGAGCAAUAUUACGUCGU	-2.57 ± 0.15	-1.91 ± 0.2
CCAGAGCAAUAUUACGUAUG	-2.22 ± 0.11	-1.77 ± 0.12
UUAAAGCAAUAUUACGCUUG	-0.897 ± 0.096	0.0122 ± 0.12
AAAUAGCAAUAUUACGCCCC	-1.71 ± 0.32	0.0438 ± 0.38
AGGAAGCAAUAUUACGUUCA	-0.532 ± 0.13	-1.05 ± 0.21
AUGCAGCAAUAUUACGUCCG	-2.16 ± 0.11	-1.27 ± 0.14
UCUGAGCAAUAUUACGCCAC	-2.41 ± 0.49	
GCACAGCAAUAUUACGGACA	-1.02 ± 0.1	-0.584 ± 0.11
AGGUAGCAAUAUUACGUACA	-0.927 ± 0.016	-0.257 ± 0.034
CUCGAGCAAUAUUACGCACC		-2.08 ± 0.32
UGGAAGCAAUAUUACGUUAA	-0.681 ± 0.36	-0.67 ± 0.3
UUGCAGCAAUAUUACGCAAU	-3.95 ± 0.42	-1.86 ± 0.14
AUCAAGCAAUAUUACGGGUG	-1.4 ± 0.088	-0.416 ± 0.087
UAGCAGCAAUAUUACGGAUG	-1.19 ± 0.073	-0.912 ± 0.079
UAGAAGCAAUAUUACGUAGA	-2.4 ± 0.095	-1.79 ± 0.11
GCCAAGCAAUAUUACGUGUU	-0.889 ± 0.049	-0.309 ± 0.06
CCUGAGCAAUAUUACGCCUG	-3.03 ± 0.26	-2.47 ± 0.25
AUUUAGCAAUAUUACGAUCU	0.177 ± 0.13	0.0446 ± 0.11
GUCUAGCAAUAUUACGCCUG		-3.47 ± 0.41
AGCUAGCAAUAUUACGCAUU	-3 ± 0.19	-1.48 ± 0.14
AAGUAGCAAUAUUACGCGAU	-3.2 ± 0.16	-2.19 ± 0.15
GCUUAGCAAUAUUACGUACC	-0.204 ± 0.2	1.1 ± 0.21
AGGAAGCAAUAUUACGACGU	0.0515 ± 0.072	0.213 ± 0.076
AAAAAGCAAUAUUACGCUUA	-1.36 ± 0.13	-0.916 ± 0.12
CUUAAGCAAUAUUACGAUUA	-3.71 ± 0.26	-2.72 ± 0.21
CCUUAGCAAUAUUACGGCCA	-3.46 ± 0.41	-1.69 ± 0.18

Sequence	self-splicing fitness (ln) (30 °C)	self-splicing fitness (ln) (37 °C)
GAUCAGCAAUAUUACGAAUC	-3.46 ± 0.41	-2.61 ± 0.39
UGUGAGCAAUAUUACGCGCC	-2.07 ± 0.17	-1.9 ± 0.38
ACGAAGCAAUAUUACGCGUA	-1.27 ± 0.11	-0.335 ± 0.084
CUCGAGCAAUAUUACGAUGU		-2.06 ± 0.3
UAUAAGCAAUAUUACGUUAC	-3.45 ± 0.21	-2.46 ± 0.23
AAUCAGCAAUAUUACGCUCU	-0.00647 ± 0.077	0.0812 ± 0.097
CCUCAGCAAUAUUACGUCAU	-3.03 ± 0.13	-1.77 ± 0.18
CACAAGCAAUAUUACGGCAU	-3.26 ± 0.12	-2.33 ± 0.12
ACUCAGCAAUAUUACGACCG	-0.553 ± 0.16	-1 ± 0.15
GCCAAGCAAUAUUACGGCGC	-1.36 ± 0.11	-0.697 ± 0.15
GUCGAGCAAUAUUACGAGUC	-3.73 ± 0.25	-2.2 ± 0.18
CUCCAGCAAUAUUACGCCAC	-2.7 ± 0.35	
GCCGAGCAAUAUUACGCAGG	-3.43 ± 0.25	-4.04 ± 0.42
GGCAAGCAAUAUUACGGACC	-1.77 ± 0.18	-0.606 ± 0.2
GCCAAGCAAUAUUACGGGUA	-0.958 ± 0.052	-0.102 ± 0.062
UAUUAGCAAUAUUACGGAGA	-2.09 ± 0.25	-2.18 ± 0.32
ACCUAGCAAUAUUACGCUAU	-1.89 ± 0.084	-1.1 ± 0.1
AUUAAGCAAUAUUACGAUGU	-0.608 ± 0.07	-0.0076 ± 0.084
UCCAAGCAAUAUUACGGUCA	-0.259 ± 0.06	0.0746 ± 0.065
GCAAAGCAAUAUUACGUGCA	-1.62 ± 0.099	-0.826 ± 0.1
UUCCAGCAAUAUUACGUACA	-1.11 ± 0.1	-0.862 ± 0.12
GAGAAGCAAUAUUACGGAUC	-2.34 ± 0.34	-1.97 ± 0.4
AUCAAGCAAUAUUACGAAAG	-3.67 ± 0.21	-2.74 ± 0.25
ACCUAGCAAUAUUACGUUGG	-2.35 ± 0.092	-2.46 ± 0.14
GGUUAGCAAUAUUACGAACA	-0.6 ± 0.18	0.626 ± 0.25
CGGGAGCAAUAUUACGCCGG	-2.87 ± 0.46	-1.81 ± 0.34

Sequence	self-splicing fitness (ln) (30 °C)	self-splicing fitness (ln) (37 °C)
UCACAGCAAUAUUACGGAUG	-2.4 ± 0.12	-1.89 ± 0.13
UUCUAGCAAUAUUACGGUCU		-3.7 ± 0.36
CGUUAGCAAUAUUACGAGCC	-2.52 ± 0.21	0.132 ± 0.17
GGGUAGCAAUAUUACGAUGA	-0.862 ± 0.13	-0.927 ± 0.14
GCCGAGCAAUAUUACGCCAC	-2.11 ± 0.34	
UGUGAGCAAUAUUACGGGGG	-3.23 ± 0.26	-2.35 ± 0.23
GCGAAGCAAUAUUACGGGAA	-3.48 ± 0.43	-2.68 ± 0.33
AGCUAGCAAUAUUACGCACG	-0.605 ± 0.16	-0.0907 ± 0.18
GGUCAGCAAUAUUACGUCUC	0.385 ± 0.17	-0.113 ± 0.15
UGACAGCAAUAUUACGACUU	-0.452 ± 0.068	0.389 ± 0.091
GAUUAGCAAUAUUACGUAGC	-1.74 ± 0.14	-1.33 ± 0.18
AUGGAGCAAUAUUACGGCGC	-2.45 ± 0.34	-0.677 ± 0.41
CUUGAGCAAUAUUACGACAU	-3.581 ± 0.028	-2.55 ± 0.041
AACGAGCAAUAUUACGCCAA	-2.5 ± 0.19	-3.1 ± 0.22
UAGGAGCAAUAUUACGAUGU		-1.79 ± 0.4
UAGCAGCAAUAUUACGCAUC	-4.15 ± 0.47	-3.39 ± 0.26
UCUGAGCAAUAUUACGUCGU	-3.79 ± 0.29	-1.91 ± 0.25
AUGCAGCAAUAUUACGCAGG	-3.71 ± 0.14	-2.13 ± 0.12
GUCUAGCAAUAUUACGGAUC	-1.99 ± 0.28	-1.85 ± 0.27
UGGUAGCAAUAUUACGCUGC	-2.89 ± 0.31	-2.86 ± 0.4
AGGCAGCAAUAUUACGGGGU	-3.54 ± 0.21	-3.25 ± 0.37
ACAGAGCAAUAUUACGCAAG	-3.99 ± 0.39	-2.33 ± 0.25
AGUGAGCAAUAUUACGAGGC	-3.83 ± 0.33	-1.45 ± 0.17
ACGCAGCAAUAUUACGCGAU	-3.38 ± 0.16	-2.22 ± 0.16
ACACAGCAAUAUUACGUCUA	-1.27 ± 0.072	-0.282 ± 0.072
